The text below walks through data of patent CN116836268A (BEIJING WISDOMAB BIOTECHNOLOGY CO LTD, dated 2023).

Broadly, the Kd is the free concentration of one partner at which half of the binding sites on the other are occupied at equilibrium, for simple one-to-one binding. A high value points to lower affinity.

This assay deals with Cov-S-RBD-His (SARS-CoV-2, UniProt P0DTC2 319-537).

B1: S4B3-mIgG2a (antibody, V domains shown)
VH: QVQLQQSGAELVKPGASVKMSCKASGYIFNSYSIHWVKKTPGQGLEWIGAIYPGNGDTSNSQRFKGKATLTADKSSSTVYMQLSRLTSEDSAVYYCARDGYDDSYGLDYWGQGTSVTVSS
VL: DIVMTQSQKFMSTSVGDRVSVTCKASQNVGTNVAWYQQKPGQSPKALIYSASYRYSGVPDRFTGSGSGTDFTLTISNVQSEDLAEYFCQQYNSYPLTFGGGTKLEIKR
Molecule B1 returned an equilibrium dissociation constant (Kd) of 22.8 nM.
